Measurements reported in article PMC8915953 (Frontiers in Microbiology, 2022).

Target: T1, IFITM3-C-LgBiT (human, UniProt Q01628 1-133)
T1 construct: also called C-terminal tagged IFITM3; not shown: LgBiT, C-terminal, kept
Assay: split reporter (BiFC, NanoBiT)
Conditions: partners not purified

T1 sequence (Q01628 whole entry): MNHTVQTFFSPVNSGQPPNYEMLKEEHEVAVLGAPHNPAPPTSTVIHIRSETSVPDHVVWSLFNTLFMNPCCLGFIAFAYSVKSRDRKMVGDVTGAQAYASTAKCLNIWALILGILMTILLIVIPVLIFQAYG

B1: ZMPSTE24-C-SmBiT (natural protein, human, UniProt O75844 1-475, looked up)
chain: MGMWASLDALWEMPAEKRIFGAVLLFSWTVYLWETFLAQRQRRIYKTTTHVPPELGQIMDSETFEKSRLYQLDKSTFSFWSGLYSETEGTLILLFGGIPYLWRLSGRFCGYAGFGPEYEITQSLVFLLLATLFSALTGLPWSLYNTFVIEEKHGFNQQTLGFFMKDAIKKFVVTQCILLPVSSLLLYIIKIGGDYFFIYAWLFTLVVSLVLVTIYADYIAPLFDKFTPLPEGKLKEEIEVMAKSIDFPLTKVYVVEGSKRSSHSNAYFYGFFKNKRIVLFDTLLEEYSVLNKDIQEDSGMEPRNEEEGNSEEIKAKVKNKKQGCKNEEVLAVLGHELGHWKLGHTVKNIIISQMNSFLCFFLFAVLIGRKELFAAFGFYDSQPTLIGLLIIFQFIFSPYNEVLSFCLTVLSRRFEFQADAFAKKLGKAKDLYSALIKLNKDNLGFPVSDWLFSMWHYSHPPLLERLQALKTMKQH
notes: also called C-terminal tagged ZMPSTE24; not shown: SmBiT, C-terminal, kept
- luminescence relative to the negative control pairs: ~12 fold
